Data reported in IntAct's records for PubMed 16000308.

B1: Melanoma-associated antigen D1 (Homo sapiens), Q9Y5V3 (parent)
chain: MAQKMDCGAGLLGFQAEASVEDSALLMQTLMEAIQISEAPPTNQATAAASPQSSQPPTANEMADIQVSAAAARPKSAFKVQNATTKGPNGVYDFSQAHNAKDVPNTQPKAAFKSQNATPKGPNAAYDFSQAATTGELAANKSEMAFKAQNATTKVGPNATYNFSQSLNANDLANSRPKTPFKAWNDTTKAPTADTQTQNVNQAKMATSQADIETDPGISEPDGATAQTSADGSQAQNLESRTIIRGKRTRKINNLNVEENSSGDQRRAPLAAGTWRSAPVPVTTQNPPGAPPNVLWQTPLAWQNPSGWQNQTARQTPPARQSPPARQTPPAWQNPVAWQNPVIWPNPVIWQNPVIWPNPIVWPGPVVWPNPLAWQNPPGWQTPPGWQTPPGWQGPPDWQGPPDWPLPPDWPLPPDWPLPTDWPLPPDWIPADWPIPPDWQNLRPSPNLRPSPNSRASQNPGAAQPRDVALLQERANKLVKYLMLKDYTKVPIKRSEMLRDIIREYTDVYPEIIERACFVLEKKFGIQLKEIDKEEHLYILISTPESLAGILGTTKDTPKLGLLLVILGVIFMNGNRASEAVLWEALRKMGLRPGVRHPLLGDLRKLLTYEFVKQKYLDYRRVPNSNPPEYEFLWGLRSYHETSKMKVLRFIAEVQKRDPRDWTAQFMEAADEALDALDAAAAEAEARAEARTRMGIGDEAVSGPWSWDDIEFELLTWDEEGDFGDPWSRIPFTFWARYHQNARSRFPQTFAGPIIGPGGTASANFAANFGAIGFFWVE
partner: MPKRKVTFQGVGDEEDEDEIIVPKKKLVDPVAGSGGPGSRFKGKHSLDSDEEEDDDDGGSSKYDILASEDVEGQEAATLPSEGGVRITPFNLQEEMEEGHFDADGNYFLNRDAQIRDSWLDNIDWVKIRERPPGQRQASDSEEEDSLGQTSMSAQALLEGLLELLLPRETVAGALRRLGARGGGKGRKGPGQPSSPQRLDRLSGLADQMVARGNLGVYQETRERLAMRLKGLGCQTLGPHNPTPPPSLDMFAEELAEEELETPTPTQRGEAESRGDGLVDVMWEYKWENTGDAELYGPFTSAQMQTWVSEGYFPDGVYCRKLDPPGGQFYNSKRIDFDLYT

Variants of: B1
Conditions: with cd2b2_human CD2BP2, O95400

Effect of a mutation on the interaction of substitutions, site by site:
P378: A decreasing interaction strength, C decreasing interaction strength, D decreasing interaction strength, E decreasing interaction strength, G decreasing interaction strength, H decreasing interaction strength, M decreasing interaction strength, W decreasing interaction strength
G379: A decreasing interaction strength, C decreasing interaction strength, D decreasing interaction strength, E decreasing interaction strength, W decreasing interaction strength
W380: A decreasing interaction strength, D decreasing interaction strength, E disrupting interaction strength
Q381: C decreasing interaction strength, D decreasing interaction strength, E decreasing interaction strength, Y decreasing interaction strength
T382: C disrupting interaction strength, D disrupting interaction strength, E disrupting interaction strength, L disrupting interaction strength, M decreasing interaction strength, N decreasing interaction strength
P383: A disrupting interaction strength, C disrupting interaction strength, D disrupting interaction strength, E disrupting interaction strength, F disrupting interaction strength, G disrupting interaction strength, H disrupting interaction strength, I disrupting interaction strength, K disrupting interaction strength, L disrupting interaction strength, M disrupting interaction strength, N disrupting interaction strength, Q disrupting interaction strength, R disrupting interaction strength, S disrupting interaction strength, T disrupting interaction strength, V disrupting interaction strength, W disrupting interaction strength, Y disrupting interaction strength
P384: A disrupting interaction strength, C disrupting interaction strength, D disrupting interaction strength, E disrupting interaction strength, F disrupting interaction strength, G disrupting interaction strength, H disrupting interaction strength, I disrupting interaction strength, K disrupting interaction strength, L disrupting interaction strength, M disrupting interaction strength, N disrupting interaction strength, Q disrupting interaction strength, R disrupting interaction strength, S disrupting interaction strength, T disrupting interaction strength, V disrupting interaction strength
